# Test results taken from patent US20200199241A1 (Chugai, published 2020).
# T1: human FcγRIIa(H) (human, UniProt P12318 36-217)
# T1 construct: also called hFcgRIIa(H); FcγRIIa type H
# T1 sequence: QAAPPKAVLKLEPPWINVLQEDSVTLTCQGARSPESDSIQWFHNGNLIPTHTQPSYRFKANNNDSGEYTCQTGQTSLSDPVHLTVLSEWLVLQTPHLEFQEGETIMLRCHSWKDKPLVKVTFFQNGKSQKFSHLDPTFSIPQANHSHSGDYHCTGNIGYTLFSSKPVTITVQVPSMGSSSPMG
# T2: human FcγRIIa(R) (human, UniProt P12318 36-217)
# T2 construct: also called hFcgRIIa(R); FcγRIIa type R
# T2 chain: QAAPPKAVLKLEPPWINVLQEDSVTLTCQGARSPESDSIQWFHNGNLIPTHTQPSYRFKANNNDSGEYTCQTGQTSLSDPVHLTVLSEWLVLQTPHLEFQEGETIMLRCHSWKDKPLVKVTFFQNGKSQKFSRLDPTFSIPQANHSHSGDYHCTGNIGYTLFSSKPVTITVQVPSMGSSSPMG
# T3: human FcγRIIb (human, UniProt P31994 43-217, limits assumed)
# T3 construct: also called hFcgRIIb; FcγIIB
# T3 sequence: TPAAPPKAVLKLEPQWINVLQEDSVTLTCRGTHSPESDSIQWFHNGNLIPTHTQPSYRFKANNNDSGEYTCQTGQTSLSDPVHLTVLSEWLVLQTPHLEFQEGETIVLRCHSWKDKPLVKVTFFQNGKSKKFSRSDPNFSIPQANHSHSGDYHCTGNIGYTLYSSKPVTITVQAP
# T4: soluble human IL-6 receptor (human, UniProt P08887 20-357)
# T4 construct: also called hsIL-6R
# T4 sequence: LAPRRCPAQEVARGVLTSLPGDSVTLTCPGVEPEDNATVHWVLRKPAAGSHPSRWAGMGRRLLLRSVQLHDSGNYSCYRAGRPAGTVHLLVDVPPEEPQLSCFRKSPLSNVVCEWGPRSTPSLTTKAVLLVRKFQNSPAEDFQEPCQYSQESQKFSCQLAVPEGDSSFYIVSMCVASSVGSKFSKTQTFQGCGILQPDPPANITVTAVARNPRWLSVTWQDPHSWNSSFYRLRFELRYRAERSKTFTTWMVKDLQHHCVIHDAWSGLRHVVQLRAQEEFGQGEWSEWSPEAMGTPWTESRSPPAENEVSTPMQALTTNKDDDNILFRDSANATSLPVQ
# T5: human FcγRIIb (human, UniProt P31994 43-217, limits assumed)
# T5 construct: also called FcγIIB
# T5 sequence: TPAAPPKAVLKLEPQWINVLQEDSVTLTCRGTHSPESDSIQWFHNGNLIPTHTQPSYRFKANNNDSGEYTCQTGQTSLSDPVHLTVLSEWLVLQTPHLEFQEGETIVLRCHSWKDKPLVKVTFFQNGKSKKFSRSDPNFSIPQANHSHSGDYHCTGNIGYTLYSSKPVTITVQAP
# T6: human FcγRIIa type H (human, UniProt P12318 36-217)
# T6 construct: also called FcγRIIaH; FcγRIIa(H)
# T6 sequence: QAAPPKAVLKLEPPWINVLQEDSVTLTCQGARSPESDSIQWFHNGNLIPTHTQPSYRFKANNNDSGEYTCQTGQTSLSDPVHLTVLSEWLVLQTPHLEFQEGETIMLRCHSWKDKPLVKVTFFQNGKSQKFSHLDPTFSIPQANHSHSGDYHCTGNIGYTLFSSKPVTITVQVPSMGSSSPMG
# T7: human FcγRIIa type R (human, UniProt P12318 36-217)
# T7 construct: also called FcγRIIaR; FcγRIIa(R)
# T7 chain: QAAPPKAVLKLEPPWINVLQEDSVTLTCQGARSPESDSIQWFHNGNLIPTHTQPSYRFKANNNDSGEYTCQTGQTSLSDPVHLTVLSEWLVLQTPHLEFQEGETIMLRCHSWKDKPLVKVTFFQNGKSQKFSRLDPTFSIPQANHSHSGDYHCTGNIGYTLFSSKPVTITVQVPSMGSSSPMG
# T8: FcγRIIb (human, UniProt P31994 43-217, limits assumed)
# T8 construct: SPR analyte; also called FcγIIB; CD32
# T8 sequence: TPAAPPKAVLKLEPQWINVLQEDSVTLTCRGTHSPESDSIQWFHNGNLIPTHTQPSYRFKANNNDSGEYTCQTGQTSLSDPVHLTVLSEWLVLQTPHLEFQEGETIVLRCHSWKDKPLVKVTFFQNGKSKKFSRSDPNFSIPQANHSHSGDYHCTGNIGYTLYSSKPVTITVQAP
# T9: FcγRIIa type H (human, UniProt P12318 36-217)
# T9 construct: SPR analyte; also called FcγRIIaH
# T9 sequence: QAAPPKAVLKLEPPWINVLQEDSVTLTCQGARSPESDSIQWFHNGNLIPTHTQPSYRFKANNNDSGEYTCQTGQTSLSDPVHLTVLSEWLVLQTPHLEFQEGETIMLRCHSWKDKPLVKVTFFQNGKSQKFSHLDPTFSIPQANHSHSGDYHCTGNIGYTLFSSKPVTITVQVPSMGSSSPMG
# T10: FcγRIIa type R (human, UniProt P12318 36-217)
# T10 construct: SPR analyte; also called FcγRIIaR; FcγRIIa(R)
# T10 chain: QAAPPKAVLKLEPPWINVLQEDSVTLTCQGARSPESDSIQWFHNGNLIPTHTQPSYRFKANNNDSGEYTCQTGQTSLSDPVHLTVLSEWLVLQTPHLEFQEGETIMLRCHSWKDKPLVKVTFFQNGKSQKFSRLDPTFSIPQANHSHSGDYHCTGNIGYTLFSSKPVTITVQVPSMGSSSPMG
# What was measured:
# human FcγRIIa(H) = target: T1, human FcγRIIa(H); assay: SPR, antibody captured on the chip, FcγR as analyte, HBS-EP+, 25 C; amount bound corrected for captured antibody
# Description: (§1) Interaction between each modified antibody and Fcγ receptor prepared in the manner described above was analyzed using the BIACORE™ T100 surface plasmon resonance system (GE Healthcare), BIACORE™ T200 surface plasmon resonance system (GE Healthcare), BIACORE™ A100 surface plasmon resonance system or BIACORE™ 4000 surface plasmon resonance system. HBS-EP+ (GE Healthcare) was used for the running buffer, and measurements were carried out at 25° C. The chips used were chips in which antigen peptides, Protein A (Thermo Scientific), Protein A/G (Thermo Scientific) or Protein L (ACTIGEN® protein (Alltech or BioVision) were immobilized on the Series S Sensor Chip CMS (GE Healthcare) or Series S Sensor Chip CM4 (GE Healthcare) by amine coupling, or chips in which preliminarily biotinylated antigen peptides were allowed to interact and then immobilized on the Series S Sensor Chip SA (certified) (GE Healthcare). The target antibodies were captured on these sensor chips, Fcγ receptor diluted with the running buffer was allowed to interact, followed by measurement of the amount of bound antibody. The amounts bound were compared between antibodies. However, since the amount of Fcγ receptor bound depends on the amount of captured antibody, the values used for comparison were first corrected by dividing the amount of Fcγ receptor bound by the captured amount of each antibody. Through reaction with 10 mM glycine-HCl at pH 1.5, the sensor chips were regenerated by washing off antibody captured on the sensor chips and used repeatedly.
# human FcγRIIa(R) = target: T2, human FcγRIIa(R); assay: as above
# Description: as §1
# human FcγRIa [1] = target: T11, human FcγRIa (human, UniProt P12314 16-292, limits assumed); assay: as above
# T11 construct: also called hFcgRIa; hFcgRI
# T11 sequence (P12314 16-292 limits assumed): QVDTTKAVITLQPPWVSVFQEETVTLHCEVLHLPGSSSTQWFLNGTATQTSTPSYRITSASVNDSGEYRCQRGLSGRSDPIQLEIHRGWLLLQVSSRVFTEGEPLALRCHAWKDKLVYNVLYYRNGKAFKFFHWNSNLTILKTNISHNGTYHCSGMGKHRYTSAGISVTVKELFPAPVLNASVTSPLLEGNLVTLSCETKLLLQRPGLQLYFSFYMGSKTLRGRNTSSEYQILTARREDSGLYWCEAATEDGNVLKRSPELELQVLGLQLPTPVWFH
# Description: as §1
# human FcγRIIb [2] = target: T3, human FcγRIIb; assay: as above
# Description: as §1
# [3] = target: T4, soluble human IL-6 receptor; assay: Biacore SPR, 3 uM CaCl2, pH 7.4, 37C, estimated
# Description: (§2) The kinetic analysis of the antigen-antibody reactions was conducted in solutions with 2 mM and 3 μM calcium ion concentrations, set as high and low calcium ion concentration conditions, respectively. The antibody of interest was captured on Sensor chip CM4 (GE Healthcare) on which an appropriate amount of protein A (Invitrogen) was immobilized by an amine coupling method. Two buffers [10 mM N-(2-acetamido)-2-aminoethanesulfonic acid (ACES), 150 mM NaCl, 0.05% (w/v) polysorbate 20 (Tween 20®), and 2 mM CaCl₂ (pH 7.4) or 10 mM ACES, 150 mM NaCl, 0. 05% (w/v) polysorbate 20 (Tween 20®), and 3 μmol/L CaCl₂ (pH 7.4)] were used as running buffers. These buffers were used for diluting human IL-6 receptor. All the measurements were conducted at 37° C.
# (§3) Subsequently, the sensor chip was regenerated by injecting 10 mM glycine-HCl (pH 1.5) at a flow rate 30 μL/min for 30 seconds.
# [4] = target: T4, soluble human IL-6 receptor; assay: Biacore SPR, 3 uM CaCl2, pH 7.4, 37C, estimated from Req and Rmax
# Description: as §2, §3
# human FcγRIIb [5] = target: T5, human FcγRIIb; assay: SPR (Biacore); KD for FcγRIIaR divided by KD for FcγRIIb of the same antibody
# human FcγRIIa type H = target: T6, human FcγRIIa type H; assay: SPR (Biacore), antibody captured, FcγR as analyte
# human FcγRIIb [6] = target: T5, human FcγRIIb; assay: SPR (Biacore), antibody captured, FcγR as analyte
# human FcγRIIa type R = target: T7, human FcγRIIa type R; assay: SPR (Biacore), antibody captured, FcγR as analyte
# human FcγRIa [7] = target: T12, human FcγRIa (human, UniProt P12314 16-292, limits assumed); assay: SPR (Biacore), antibody captured, FcγR as analyte
# T12 construct: also called CD64
# T12 sequence (P12314 16-292 limits assumed): as above
# human FcγRIIb [8] = target: T5, human FcγRIIb; assay: SPR (Biacore); ratio against parent IL6R-F11/IL6R-L
# human FcγRIIb [9] = target: T5, human FcγRIIb; assay: SPR (Biacore); KD for FcγRIIaH divided by KD for FcγRIIb of the same antibody
# FcγRIIb [10] = target: T8, FcγRIIb; assay: ratio of SPR KDs: KD for FcγRIIaR over KD for FcγRIIb
# Excerpt: (§4) Furthermore, KD(IIaR)/KD(IIb) and KD(IIaH)/KD(IIb) in the table respectively represent the value obtained by dividing the KD value of each variant for FcγRIIaR by the KD value of each variant for FcγRIIb, and the value obtained by dividing the KD value of each variant for FcγRIIaH by the KD value of each variant for FcγRIIb.
# FcγRIIb [11] = target: T8, FcγRIIb; assay: ratio of SPR KDs; reference IL6R-B3/IL6R-L
# Excerpt: Furthermore, KD(IIaR)/KD(IIb) and KD(IIaH)/KD(IIb) in the table respectively represent the value obtained by dividing the KD value of each variant for FcγRIIaR by the KD value of each variant for FcγRIIb, and the value obtained by dividing the KD value of each variant for FcγRIIaH by the KD value of each variant for FcγRIIb. KD(IIb) of the parent polypeptide/KD(IIb) of the altered polypeptide refers to the value obtained by dividing the KD value of the parent polypeptide for FcγRIIb by the KD value of each variant for FcγRIIb.
# FcγRIIb [12] = target: T8, FcγRIIb; assay: ratio of SPR KDs: KD for FcγRIIaH over KD for FcγRIIb
# Excerpt: as §4
# FcγRIIa type H [13] = target: T9, FcγRIIa type H; assay: ratio of SPR KDs; stronger receptor here FcγRIIaH; reference IL6R-B3/IL6R-L (FcγRIIaH)
# FcγRIIb [14] = target: T8, FcγRIIb; assay: SPR (Biacore), antibody captured, FcγR analyte
# FcγRIIa type R = target: T10, FcγRIIa type R; assay: SPR (Biacore), antibody captured, FcγR analyte
# FcγRIa = target: T13, FcγRIa (human, UniProt P12314 16-292, limits assumed); assay: SPR (Biacore), antibody captured, FcγR analyte
# T13 construct: SPR analyte; also called CD64
# FcγRIIIa type V = target: T14, FcγRIIIa type V (human, UniProt P08637 17-208, limits assumed); assay: SPR (Biacore), antibody captured, FcγR analyte
# T14 construct: SPR analyte; allotype V158 was used here; also called FcγRIIIaV; FcγRIIIa(V)
# FcγRIIa type H [15] = target: T9, FcγRIIa type H; assay: SPR (Biacore), antibody captured, FcγR analyte
# T13 sequence (P12314 16-292 limits assumed): as above
# T14 sequence (P08637 other isoform, or with tags, fused parts or gaps limits assumed): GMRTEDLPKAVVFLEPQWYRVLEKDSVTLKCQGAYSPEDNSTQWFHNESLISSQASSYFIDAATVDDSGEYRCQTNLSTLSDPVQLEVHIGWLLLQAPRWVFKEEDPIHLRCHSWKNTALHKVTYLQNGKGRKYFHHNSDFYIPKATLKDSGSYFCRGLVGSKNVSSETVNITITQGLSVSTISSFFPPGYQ
binder,measurement,setting,value
"GpH7-G1d/GpL16-k0 (antibody, human IgG1, anti-glypican-3 antibody; G1d is IgG1 with Gly and Lys deleted from the C terminus; copies: 2 + 2) heavy: not shown light: DIVMTQSPLSLPVTPGEPASISCQASESLVHSNRNTYLHWYLQKPGQSPQLLIYKVSNRFSGVPDRFSGSGSGTDFTLKISRVEAEDVGVYYCSQNTHVPPTFGQGTKVEIE",relative binding activity (GpH7-G1d/GpL16-k0 = 100),human FcγRIIa(H),100
same,relative binding activity (GpH7-G1d/GpL16-k0 = 100),human FcγRIIa(R),100
same,relative binding activity (GpH7-G1d/GpL16-k0 = 100),human FcγRIa [1],100
same,relative binding activity (GpH7-G1d/GpL16-k0 = 100),human FcγRIIb [2],100
"GpH7-B3/GpL16-k0 (antibody, human IgG1, anti-glypican-3 antibody, constant region G1d with K439E; copies: 2 + 2) heavy: not shown light: DIVMTQSPLSLPVTPGEPASISCQASESLVHSNRNTYLHWYLQKPGQSPQLLIYKVSNRFSGVPDRFSGSGSGTDFTLKISRVEAEDVGVYYCSQNTHVPPTFGQGTKVEIE",relative binding activity (GpH7-G1d/GpL16-k0 = 100),human FcγRIIa(H),92
same,relative binding activity (GpH7-G1d/GpL16-k0 = 100),human FcγRIIa(R),94
same,relative binding activity (GpH7-G1d/GpL16-k0 = 100),human FcγRIa [1],109
same,relative binding activity (GpH7-G1d/GpL16-k0 = 100),human FcγRIIb [2],88
"FH4-IgG1 (antibody, V domains shown) VH: QVQLVQSGAEVKKPGSSVKVSCKASGGTFSSYAISWVRQAPGQGLEWMGGIIPIFGTANYAQKFQGRVTITADESTSTAYMELSSLRSEDTAVYYCARERDYYDSSGYYDAFDIWGQGTMVTVSS VL: ETTVTQSPSFLSASVGDRVTITCITTTDIDDDMNWFQQEPGKAPKLLISEGNILRPGVPSRFSSSGYGTDFTLTISKLQPEDFATYYCLQSDNLPFTFGQGTKLEIKR",Kd,[3],≥ 34000 nM
same,Kd,[4],~34000 nM
"IL6R-F11/IL6R-L (antibody, human IgG1, IL6R-G1d with M252Y/N434Y (EU numbering)) heavy: not shown light: DIQMTQSPSSLSASVGDRVTITCRASQDISSYLNWYQQKPGKAPKLLIYYTSRLHSGVPSRFSGSGSGTDFTFTISSLQPEDIATYYCQQGNTLPYTFGQGTKVEIK",KD(IIaR)/KD(IIb),human FcγRIIb [5],0.7
same,Kd,human FcγRIIa type H,5000 nM
same,Kd,human FcγRIIb [6],6800 nM
same,Kd,human FcγRIIa type R,5000 nM
same,Kd,human FcγRIa [7],0.9 nM
same,KD(IIb) of parent polypeptide/KD(IIb) of altered polypeptide,human FcγRIIb [8],1
same,KD(IIaH)/KD(IIb),human FcγRIIb [9],0.7
"IL6R-B3/IL6R-L (antibody, human IgG1, IL6R-G1d with K439E (EU numbering); also called parent polypeptide) heavy: not shown light: DIQMTQSPSSLSASVGDRVTITCRASQDISSYLNWYQQKPGKAPKLLIYYTSRLHSGVPSRFSGSGSGTDFTFTISSLQPEDIATYYCQQGNTLPYTFGQGTKVEIK",KD(IIaR)/KD(IIb),FcγRIIb [10],0.3
same,KD(IIb) of the parent polypeptide/KD(IIb) of altered polypeptide,FcγRIIb [11],1
same,KD(IIaH)/KD(IIb),FcγRIIb [12],0.2
same,KD of the stronger of FcγRIIaR/FcγRIIaH binding of the variant / that of the parent polypeptide,FcγRIIa type H [13],1
same,Kd,FcγRIIb [14],3100 nM
same,Kd,FcγRIIa type R,1100 nM
same,Kd,FcγRIa,0.42 nM
same,Kd,FcγRIIIa type V,330 nM
same,Kd,FcγRIIa type H [15],770 nM
"IL6R-G1d/IL6R-L (antibody, human IgG1, Anti-human IL-6 receptor antibody with the G1d constant region; also called IgG1 (IL6R-G1d)) heavy: not shown light: DIQMTQSPSSLSASVGDRVTITCRASQDISSYLNWYQQKPGKAPKLLIYYTSRLHSGVPSRFSGSGSGTDFTFTISSLQPEDIATYYCQQGNTLPYTFGQGTKVEIK",KD(IIaR)/KD(IIb),FcγRIIb [10],0.4
same,KD(IIb) of the parent polypeptide/KD(IIb) of altered polypeptide,FcγRIIb [11],1.2
same,KD(IIaH)/KD(IIb),FcγRIIb [12],0.3
same,KD of the stronger of FcγRIIaR/FcγRIIaH binding of the variant / that of the parent polypeptide,FcγRIIa type H [13],0.9
same,Kd,FcγRIIb [14],2600 nM
same,Kd,FcγRIIa type R,1000 nM
same,Kd,FcγRIa,0.32 nM
same,Kd,FcγRIIIa type V,350 nM
same,Kd,FcγRIIa type H [15],670 nM
"6RL#9-IgG1 (antibody, V domains shown, not shown: a dimerising Fc or GST) VH: QVQLVQSGAEVKKPGASVKVSCKASGYTFTSYYMHWVRQAPGQGLEWMGIINPSGGSTSYAQKFQGRVTMTRDTSTSTVYMELSSLRSEDTAVYYCARDDPGGGEYYFDYWGQGTLVTVSS VL: QSVLTQPPSVSGAPGQRVTISCTGSRSNMGAGYDVHWYQLLPGAAPKLLISHNTHRPSGVPDRFSGSKSGASASLAITGLQAEDEADYYCQSHDSSLSAVVFGGGTKLTVLS",Kd,[3],≥ 31000 nM
same,Kd,[4],~31000 nM
